Assays:
[1] = target: T1, 人PD-1-Fc重组蛋白(RD) (human, UniProt Q15116 21-167, limits assumed); experiment: Biacore blocking assay, hPD-1-Fc on the chip, 2-fold dilutions of the antibody in 7 steps; blocks PD-1 binding to B7-H1
T1 construct: Bought recombinant protein (RD); also called hPD-1-Fc; hPD-1; not shown: Fc part of the bought fusion protein

[2] = target: T1, 人PD-1-Fc重组蛋白(RD); experiment: ELISA, 3-fold dilutions of the antibody in 12 steps, goat anti-mouse IgG-Fc-HRP; the text prints the coat as hPD-L1-Fc but reports affinity for PD-1

T1 sequence (Q15116 21-167 limits assumed): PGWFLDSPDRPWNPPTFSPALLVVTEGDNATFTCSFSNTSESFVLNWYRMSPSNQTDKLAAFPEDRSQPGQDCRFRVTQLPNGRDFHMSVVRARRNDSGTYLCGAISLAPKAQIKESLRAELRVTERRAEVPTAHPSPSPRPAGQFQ

B1: 抗人PD-1单克隆抗体2-189-H-1 (antibody, V domains shown)
VH: QVQLKESGPGLVAPSQSLSITCTVSGFSLTTYGVSWVRQPPGKGLEWLGVIWGDGSTDYHSVLISRLSITKDISKSQVFLKLNSLQSDDTATYYCAQQGSRGDYWGQGTTLTVSS
VL: DVLLTQTPLSLPVSLGDQASISCRSSQTIVHSNGITYLEWYLQKPGQSPKALISKVSNRLSGVPDRFSGSGSGTDFTLKISRVEAEDLGVYYCFQGSHIPYTFGGGTKLEIK
notes: Mouse hybridoma antibody (CCTCC C2015160), purified on Protein A; also called 本抗体; hPD-1抗体
With B1 the EC50 [1] was 64.4 nM and the EC50 [2] was 1.07 nM.

Reference: patent CN106046162A (DONG ZHUMING BIOTECH CO LTD, dated 2016)
